Article PMC11348266

Target: GRA4 (UniProt Q27002)
Test: exogenous co-IP
Conditions: reference: wild type TBK1; sites S172

**Q.** Which “binding against the reference” value does the source give for TBK1 (from UniProt Q9UHD2) TBK1 S172A here?
**A.** The value was “weaker”.
